PMC7536116
Where two headings read alike, the source gives them in different places.

Columns and labels:
Assay in all cases: GFET
[1] = biological target: T1, TNF-alpha (human, UniProt P01375 77-233)
[2] = biological target: T1, TNF-alpha; remark: listed apart in the source
[3] = biological target: T1, TNF-alpha; remark: listed apart in the source

T1 sequence (P01375 77-233): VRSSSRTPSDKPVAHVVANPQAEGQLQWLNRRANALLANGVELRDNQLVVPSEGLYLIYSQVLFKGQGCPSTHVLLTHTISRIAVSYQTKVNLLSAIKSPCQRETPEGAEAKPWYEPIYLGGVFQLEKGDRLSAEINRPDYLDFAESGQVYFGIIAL

TGGTGGATGGCGCAGTCGGCGACAA (ssDNA, 5'-NH2 (amine, coupled to PASE on graphene)) [VR11 aptamer]
Kd [1]: 28.4 nM
Kd [2]: 28.4 nM
Kd [3]: 27.4 nM
